Where no end group is shown, it is not given here.
B1: GP10 (peptide)
peptide: Ac-ISRRLIDRTNANFLVWPPC
B2: GP4 (peptide)
peptide: Ac-ISRRLIDRTNANFLC
modifications: not fully specified; printed as Ac-25I-S-R-R-L-I-D-R-T-N-A-N-F-L38-C
B3: GP8 (peptide)
peptide: Ac-RKIEIVRKKC
B4: GP21a (peptide)
peptide: RKIEIVRKKPIFKKATV

Key:
2 DMB = test: CELIA on monoclonal 2 DMB; coated antigen not given
Rb 112 = test: competitive ELISA on antiserum Rb 112; coated antigen not given
Rb 65 = test: competitive ELISA on antiserum Rb 65; coated antigen not given
17 DB-1 = test: CELIA on monoclonal 17 DB-1; coated antigen not given
9 DB-1 = test: CELIA on monoclonal 9 DB-1; coated antigen not given
13 DB-1 = test: CELIA on monoclonal 13 DB-1; coated antigen not given
Rb 38 = test: competitive ELISA on antiserum Rb 38; coated antigen not given
21 DB-1 = test: CELIA on monoclonal 21 DB-1; coated antigen not given
Rb 39 = test: competitive ELISA on antiserum Rb 39; coated antigen not given
Rb 109 = test: competitive ELISA on antiserum Rb 109; coated antigen not given
22 DB-1 = test: CELIA on monoclonal 22 DB-1; coated antigen not given
Rb 37 = test: competitive ELISA on antiserum Rb 37; coated antigen not given
Rb 66 = test: competitive ELISA on antiserum Rb 66; coated antigen not given
4 DMB = test: CELIA on monoclonal 4 DMB; coated antigen not given
19 DB-1 = test: CELIA on monoclonal 19 DB-1; coated antigen not given
10 DB-1 = test: CELIA on monoclonal 10 DB-1; coated antigen not given
12 DB-1 = test: CELIA on monoclonal 12 DB-1; coated antigen not given
Rb 68 = test: competitive ELISA on antiserum Rb 68; coated antigen not given
Rb 67 = test: competitive ELISA on antiserum Rb 67; coated antigen not given
Rb 78 = test: competitive ELISA on antiserum Rb 78; coated antigen not given

| Binder | IC50 (2 DMB) [nM] | IC50 (Rb 112) [nM] | IC50 (Rb 65) [nM] | IC50 (17 DB-1) [nM] | IC50 (9 DB-1) [nM] | IC50 (13 DB-1) [nM] | IC50 (Rb 38) [nM] | IC50 (21 DB-1) [nM] | IC50 (Rb 39) [nM] | IC50 (Rb 109) [nM] | IC50 (22 DB-1) [nM] | IC50 (Rb 37) [nM] | IC50 (Rb 66) [nM] | IC50 (4 DMB) [nM] | IC50 (19 DB-1) [nM] | IC50 (10 DB-1) [nM] | IC50 (12 DB-1) [nM] | IC50 (Rb 68) [nM] | IC50 (Rb 67) [nM] | IC50 (Rb 78) [nM] |
| --- | --- | --- | --- | --- | --- | --- | --- | --- | --- | --- | --- | --- | --- | --- | --- | --- | --- | --- | --- | --- |
| B1 | 2000 | 3 | 3 | 3000 | 1200 | 400 | 74 | 30 | 2 | 4 | 25 | 10 | < 2 | 150 | 18 |  |  |  |  |  |
| B2 | 2000 | 2 | 3 | 180 | 1000 | 200 | 150 | 18 | 2 | 2 | 20 | 20 | < 2 | 150 | 18 | 400 | 2000 |  |  |  |
| B3 |  |  |  |  |  |  |  |  |  |  |  |  |  |  |  |  |  | < 2 | 2 |  |
| B4 |  |  |  |  |  |  |  |  |  |  |  |  |  |  |  |  |  |  |  | 100 |
